Experimental findings from PMC11969024 (2025) are described below.

To fix the notation:
B1: peptide HD2 (from tick evasin EVA4) / CCL18 (biotinylated, synthetic) (parent complex)
chain 1: EEDDYTAYAPLTCYFT
chain 2: AQVGTNKELCCLVYTSWQIPQKFIVDYSETSPQCPKPGVILLTKRGRQICADPNKKWVQKYISDLKLNA
B2: peptide HD2 (from tick evasin EVA4) / CCL1 (biotinylated, synthetic) (parent complex)
chain 1: EEDDYTAYAPLTCYFT
chain 2: KSMQVPFSRCCFSFAEQEIPLRAILCYRNTSSICSNEGLIFKLKRGKEACALDTVGWVQRHRKMLRHCPSKRK

The first experiment covers variants of B1.
For the variant chain 1 E1A, the enrichment is -0.823 log2 (difference from the parental peptide).

Regarding chain 1 Y14H, the enrichment was -1.38 log2 (difference from the parental peptide).

On to chain 1 Y14G, for which the enrichment is -8.38 log2 (difference from the parental peptide).

Turning to chain 1 T12S, the enrichment is -1.43 log2 (difference from the parental peptide).

As to chain 1 T12N, the enrichment was -1.81 log2 (difference from the parental peptide).

In the case of chain 1 T16F, the enrichment is -0.482 log2 (difference from the parental peptide).

As to chain 1 A7N, the enrichment was -0.0931 log2 (difference from the parental peptide).

As to chain 1 F15A, the enrichment is 0.456 log2 (difference from the parental peptide).

On to chain 1 F15G, for which the enrichment was -4.09 log2 (difference from the parental peptide).

With chain 1 L11H, the enrichment is 0.897 log2 (difference from the parental peptide).

With chain 1 L11W, the enrichment is 0.64 log2 (difference from the parental peptide).

Take chain 1 D3W: the enrichment is -1.95 log2 (difference from the parental peptide).

chain 1 D3M: the enrichment is -1.4 log2 (difference from the parental peptide).

With chain 1 T6E, the enrichment was 2.48 log2 (difference from the parental peptide).

With chain 1 T6V, the enrichment is -3.07 log2 (difference from the parental peptide).

In another experiment the parent is B2.
On to chain 1 T16P, for which the enrichment is 1.67 log2 (difference from the parental peptide).

Take chain 1 T16M: the enrichment is 0.0746 log2 (difference from the parental peptide).

Consider chain 1 T16D, for which the enrichment was 2.85 log2 (difference from the parental peptide).

With chain 1 T16K, the enrichment is -1.01 log2 (difference from the parental peptide).

For the variant chain 1 T16I, the enrichment was -0.756 log2 (difference from the parental peptide).

chain 1 T16W: the enrichment was -0.962 log2 (difference from the parental peptide).

Take chain 1 T16Y: the enrichment is -0.704 log2 (difference from the parental peptide).

As to chain 1 T16R, the enrichment was -4.51 log2 (difference from the parental peptide).

Take chain 1 A7V: the enrichment is -4.61 log2 (difference from the parental peptide).

For the variant chain 1 A7D, the enrichment was 0.378 log2 (difference from the parental peptide).

For the variant chain 1 A7T, the enrichment is -3.41 log2 (difference from the parental peptide).

Regarding chain 1 A7R, the enrichment was 2.51 log2 (difference from the parental peptide).

In the case of chain 1 A7P, the enrichment is -0.46 log2 (difference from the parental peptide).

For chain 1 A7Y, the enrichment is -2.42 log2 (difference from the parental peptide).

Consider chain 1 A7K, for which the enrichment was 2.4 log2 (difference from the parental peptide).

In the case of chain 1 A7G, the enrichment is -2.66 log2 (difference from the parental peptide).

chain 1 A7Q: the enrichment was 2.46 log2 (difference from the parental peptide).

chain 1 A7S: the enrichment was -0.477 log2 (difference from the parental peptide).

With chain 1 T12Q, the enrichment is -2.05 log2 (difference from the parental peptide).

For chain 1 T12L, the enrichment was -0.228 log2 (difference from the parental peptide).

Consider chain 1 T12I, for which the enrichment is -1.49 log2 (difference from the parental peptide).

chain 1 T12M: the enrichment was -0.791 log2 (difference from the parental peptide).

On to chain 1 T12A, for which the enrichment is -2.04 log2 (difference from the parental peptide).

As for chain 1 T12K, the enrichment was -1.81 log2 (difference from the parental peptide).

chain 1 T12F: the enrichment was -1.45 log2 (difference from the parental peptide).

As for chain 1 T12D, the enrichment is -0.0823 log2 (difference from the parental peptide).

In the case of chain 1 T12N, the enrichment is 1.57 log2 (difference from the parental peptide).

For chain 1 T12E, the enrichment is -2.48 log2 (difference from the parental peptide).

For the variant chain 1 T12H, the enrichment is -0.868 log2 (difference from the parental peptide).

For the variant chain 1 A9P, the enrichment was -5.04 log2 (difference from the parental peptide).

Turning to chain 1 A9L, the enrichment is -6.22 log2 (difference from the parental peptide).

As to chain 1 A9R, the enrichment is -5.43 log2 (difference from the parental peptide).

Regarding chain 1 A9N, the enrichment was -5.08 log2 (difference from the parental peptide).

Take chain 1 A9S: the enrichment is -1.71 log2 (difference from the parental peptide).

For the variant chain 1 A9I, the enrichment was -6.64 log2 (difference from the parental peptide).

As to chain 1 A9T, the enrichment is -4.64 log2 (difference from the parental peptide).

In the case of chain 1 A9G, the enrichment was -5.92 log2 (difference from the parental peptide).

As for chain 1 A9V, the enrichment is -7.56 log2 (difference from the parental peptide).

As for chain 1 A9Q, the enrichment is -0.52 log2 (difference from the parental peptide).

With chain 1 A9M, the enrichment was -5.21 log2 (difference from the parental peptide).

Take chain 1 A9W: the enrichment is -3 log2 (difference from the parental peptide).

On to chain 1 P10D, for which the enrichment was -1.68 log2 (difference from the parental peptide).

With chain 1 P10L, the enrichment was -8.15 log2 (difference from the parental peptide).

As to chain 1 P10E, the enrichment was -5.54 log2 (difference from the parental peptide).

Regarding chain 1 P10Q, the enrichment is -4.62 log2 (difference from the parental peptide).

With chain 1 P10G, the enrichment is -5.87 log2 (difference from the parental peptide).

On to chain 1 P10W, for which the enrichment was -5.49 log2 (difference from the parental peptide).

Consider chain 1 P10V, for which the enrichment is -9.61 log2 (difference from the parental peptide).

For chain 1 E1N, the enrichment was -1.4 log2 (difference from the parental peptide).

Turning to chain 1 E1K, the enrichment is -5.3 log2 (difference from the parental peptide).

chain 1 E1F: the enrichment is -2.45 log2 (difference from the parental peptide).

chain 1 E1A: the enrichment was -1.47 log2 (difference from the parental peptide).

With chain 1 E1W, the enrichment was -2.32 log2 (difference from the parental peptide).

With chain 1 E1Q, the enrichment is -1.24 log2 (difference from the parental peptide).

In the case of chain 1 E1M, the enrichment is -0.363 log2 (difference from the parental peptide).

For chain 1 E1S, the enrichment is -1.56 log2 (difference from the parental peptide).

Regarding chain 1 E1V, the enrichment is -1.48 log2 (difference from the parental peptide).

In the case of chain 1 E1H, the enrichment is -2.16 log2 (difference from the parental peptide).

Take chain 1 C13Y: the enrichment is -5.39 log2 (difference from the parental peptide).

As for chain 1 C13E, the enrichment is -6.35 log2 (difference from the parental peptide).

Regarding chain 1 C13T, the enrichment was -4.75 log2 (difference from the parental peptide).

For the variant chain 1 C13R, the enrichment is -9.78 log2 (difference from the parental peptide).

Regarding chain 1 C13A, the enrichment was -7.27 log2 (difference from the parental peptide).

Take chain 1 C13Q: the enrichment is -7.02 log2 (difference from the parental peptide).

chain 1 C13M: the enrichment was -7.16 log2 (difference from the parental peptide).

Regarding chain 1 C13W, the enrichment was -8.88 log2 (difference from the parental peptide).

Consider chain 1 C13F, for which the enrichment is -7.86 log2 (difference from the parental peptide).

Take chain 1 Y8D: the enrichment was -6.77 log2 (difference from the parental peptide).

Consider chain 1 Y8P, for which the enrichment is -6.09 log2 (difference from the parental peptide).

Turning to chain 1 Y8I, the enrichment is -5.15 log2 (difference from the parental peptide).

For chain 1 Y8W, the enrichment was -3.69 log2 (difference from the parental peptide).

For chain 1 Y8A, the enrichment was -8 log2 (difference from the parental peptide).

For chain 1 Y14C, the enrichment was -6.55 log2 (difference from the parental peptide).

chain 1 Y14L: the enrichment is -6.02 log2 (difference from the parental peptide).

Turning to chain 1 Y14S, the enrichment was -6.58 log2 (difference from the parental peptide).

For the variant chain 1 Y14A, the enrichment is -7.68 log2 (difference from the parental peptide).

For the variant chain 1 Y14V, the enrichment is -4.97 log2 (difference from the parental peptide).

As for chain 1 Y14H, the enrichment was -5.22 log2 (difference from the parental peptide).

As for chain 1 Y14W, the enrichment was -0.649 log2 (difference from the parental peptide).

For the variant chain 1 Y14M, the enrichment was -4.74 log2 (difference from the parental peptide).

On to chain 1 F15D, for which the enrichment was -3.07 log2 (difference from the parental peptide).

In the case of chain 1 F15Y, the enrichment is 1.84 log2 (difference from the parental peptide).

Take chain 1 F15G: the enrichment is -3.15 log2 (difference from the parental peptide).

In the case of chain 1 F15I, the enrichment is 2.23 log2 (difference from the parental peptide).

As for chain 1 F15P, the enrichment is -0.0179 log2 (difference from the parental peptide).

Consider chain 1 F15T, for which the enrichment was 1.39 log2 (difference from the parental peptide).

In the case of chain 1 F15M, the enrichment is 1.5 log2 (difference from the parental peptide).

With chain 1 F15K, the enrichment was -1.11 log2 (difference from the parental peptide).

chain 1 F15R: the enrichment was -0.358 log2 (difference from the parental peptide).

Regarding chain 1 F15Q, the enrichment was 0.462 log2 (difference from the parental peptide).

With chain 1 L11F, the enrichment is -4.27 log2 (difference from the parental peptide).

In the case of chain 1 L11C, the enrichment was -1.68 log2 (difference from the parental peptide).

As to chain 1 L11K, the enrichment is -0.661 log2 (difference from the parental peptide).

For chain 1 L11I, the enrichment was 2.18 log2 (difference from the parental peptide).

Take chain 1 L11H: the enrichment was -1.29 log2 (difference from the parental peptide).

In the case of chain 1 L11M, the enrichment was 2.12 log2 (difference from the parental peptide).

As to chain 1 E2W, the enrichment was -0.836 log2 (difference from the parental peptide).

In the case of chain 1 E2N, the enrichment was -2.76 log2 (difference from the parental peptide).

As to chain 1 E2D, the enrichment was 1.47 log2 (difference from the parental peptide).

chain 1 E2L: the enrichment was -2.22 log2 (difference from the parental peptide).

chain 1 E2V: the enrichment is -1.95 log2 (difference from the parental peptide).

On to chain 1 E2T, for which the enrichment was -2.76 log2 (difference from the parental peptide).

For chain 1 E2R, the enrichment is -4.77 log2 (difference from the parental peptide).

chain 1 E2P: the enrichment is -5.28 log2 (difference from the parental peptide).

Regarding chain 1 E2Q, the enrichment is -3.13 log2 (difference from the parental peptide).

For chain 1 E2M, the enrichment was -2.13 log2 (difference from the parental peptide).

As for chain 1 E2S, the enrichment is -2.78 log2 (difference from the parental peptide).

chain 1 Y5W: the enrichment is 0.92 log2 (difference from the parental peptide).

With chain 1 Y5N, the enrichment is -6.94 log2 (difference from the parental peptide).

In the case of chain 1 D4A, the enrichment was -7.31 log2 (difference from the parental peptide).

As for chain 1 D4M, the enrichment is -5.27 log2 (difference from the parental peptide).

For chain 1 D4N, the enrichment was -6.19 log2 (difference from the parental peptide).

Take chain 1 D4E: the enrichment was -2.17 log2 (difference from the parental peptide).

Regarding chain 1 D4S, the enrichment was -6.83 log2 (difference from the parental peptide).

In the case of chain 1 D4W, the enrichment is -2.57 log2 (difference from the parental peptide).

For chain 1 T6L, the enrichment was -3.32 log2 (difference from the parental peptide).

For chain 1 T6K, the enrichment is -3.59 log2 (difference from the parental peptide).

As for chain 1 T6P, the enrichment was -5.02 log2 (difference from the parental peptide).

On to chain 1 T6R, for which the enrichment is -1.22 log2 (difference from the parental peptide).

chain 1 T6A: the enrichment was 2.46 log2 (difference from the parental peptide).

In the case of chain 1 T6S, the enrichment was 4.57 log2 (difference from the parental peptide).

Regarding chain 1 T6M, the enrichment was -2.14 log2 (difference from the parental peptide).

Consider chain 1 D3M, for which the enrichment is -2.32 log2 (difference from the parental peptide).

Consider chain 1 D3I, for which the enrichment is -4.23 log2 (difference from the parental peptide).

Take chain 1 D3F: the enrichment was -4 log2 (difference from the parental peptide).

Consider chain 1 D3A, for which the enrichment was -2.56 log2 (difference from the parental peptide).

chain 1 D3Y: the enrichment was -2.01 log2 (difference from the parental peptide).

On to chain 1 D3L, for which the enrichment was -3.89 log2 (difference from the parental peptide).

Turning to chain 1 D3G, the enrichment is -3.36 log2 (difference from the parental peptide).

Consider chain 1 D3V, for which the enrichment was -3.25 log2 (difference from the parental peptide).

As for chain 1 D3P, the enrichment was -2.66 log2 (difference from the parental peptide).

Turning to chain 1 D3N, the enrichment was -2.85 log2 (difference from the parental peptide).

Consider chain 1 D3W, for which the enrichment is -3.57 log2 (difference from the parental peptide).

On to chain 1 D3H, for which the enrichment is -3.87 log2 (difference from the parental peptide).

Regarding chain 1 D3Q, the enrichment was -3.22 log2 (difference from the parental peptide).
